According to doi:10.1101/2022.03.08.483475 (bioRxiv, 2022):
Where two headings read alike, the source gives them in different places.

B1: MukF (wild type) (natural protein, E. coli, UniProt P60293 1-440, looked up)
chain: MSEFSQTVPELVAWARKNDFSISLPVDRLSFLLAVATLNGERLDGEMSEGELVDAFRHVSDAFEQTSETIGVRANNAINDMVRQRLLNRFTSEQAEGNAIYRLTPLGIGITDYYIRQREFSTLRLSMQLSIVAGELKRAADAAEEGGDEFHWHRNVYAPLKYSVAEIFDSIDLTQRLMDEQQQQVKDDIAQLLNKDWRAAISSCELLLSETSGTLRELQDTLEAAGDKLQANLLRIQDATMTHDDLHFVDRLVFDLQSKLDRIISWGQQSIDLWIGYDRHVHKFIRTAIDMDKNRVFAQRLRQSVQTYFDEPWALTYANADRLLDMRDEEMALRDEEVTGELPEDLEYEEFNEIREQLAAIIEEQLAVYKTRQVPLDLGLVVREYLSQYPRARHFDVARIVIDQAVRLGVAQADFTGLPAKWQPINDYGAKVQAHVIDKY
B2: MukB (wild type) (natural protein, E. coli, UniProt P22523 1-1486, looked up)
chain: MIERGKFRSLTLINWNGFFARTFDLDELVTTLSGGNGAGKSTTMAAFVTALIPDLTLLHFRNTTEAGATSGSRDKGLHGKLKAGVCYSMLDTINSRHQRVVVGVRLQQVAGRDRKVDIKPFAIQGLPMSVQPTQLVTETLNERQARVLPLNELKDKLEAMEGVQFKQFNSITDYHSLMFDLGIIARRLRSASDRSKFYRLIEASLYGGISSAITRSLRDYLLPENSGVRKAFQDMEAALRENRMTLEAIRVTQSDRDLFKHLISEATNYVAADYMRHANERRVHLDKALEFRRELHTSRQQLAAEQYKHVDMARELAEHNGAEGDLEADYQAASDHLNLVQTALRQQEKIERYEADLDELQIRLEEQNEVVAEAIERQQENEARAEAAELEVDELKSQLADYQQALDVQQTRAIQYNQAIAALNRAKELCHLPDLTADCAAEWLETFQAKELEATEKMLSLEQKMSMAQTAHSQFEQAYQLVVAINGPLARNEAWDVARELLREGVDQRHLAEQVQPLRMRLSELEQRLREQQEAERLLADFCKRQGKNFDIDELEALHQELEARIASLSDSVSNAREERMALRQEQEQLQSRIQSLMQRAPVWLAAQNSLNQLSEQCGEEFTSSQDVTEYLQQLLEREREAIVERDEVGARKNAVDEEIERLSQPGGSEDQRLNALAERFGGVLLSEIYDDVSLEDAPYFSALYGPSRHAIVVPDLSQVTEHLEGLTDCPEDLYLIEGDPQSFDDSVFSVDELEKAVVVKIADRQWRYSRFPEVPLFGRAARESRIESLHAEREVLSERFATLSFDVQKTQRLHQAFSRFIGSHLAVAFESDPEAEIRQLNSRRVELERALSNHENDNQQQRIQFEQAKEGVTALNRILPRLNLLADDSLADRVDEIRERLDEAQEAARFVQQFGNQLAKLEPIVSVLQSDPEQFEQLKEDYAYSQQMQRDARQQAFALTEVVQRRAHFSYSDSAEMLSGNSDLNEKLRERLEQAEAERTRAREALRGHAAQLSQYNQVLASLKSSYDTKKELLNDLQRELQDIGVRADSGAEERARIRRDELHAQLSNNRSRRNQLEKALTFCEAEMDNLTRKLRKLERDYFEMREQVVTAKAGWCAVMRMVKDNGVERRLHRRELAYLSADDLRSMSDKALGALRLAVADNEHLRDVLRMSEDPKRPERKIQFFVAVYQHLRERIRQDIIRTDDPVEAIEQMEIELSRLTEELTSREQKLAISSRSVANIIRKTIQREQNRIRMLNQGLQNVSFGQVNSVRLNVNVRETHAMLLDVLSEQHEQHQDLFNSNRLTFSEALAKLYQRLNPQIDMGQRTPQTIGEELLDYRNYLEMEVEVNRGSDGWLRAESGALSTGEAIGTGMSILVMVVQSWEDESRRLRGKDISPCRLLFLDEAARLDARSIATLFELCERLQMQLIIAAPENISPEKGTTYKLVRKVFQNTEHVHVVGLRGFAPQLPETLPGTDEAPSQAS
B3: ParC subunit of topoisomerase IV (natural protein, E. coli, UniProt P0AFI2 1-752, looked up)
chain: MSDMAERLALHEFTENAYLNYSMYVIMDRALPFIGDGLKPVQRRIVYAMSELGLNASAKFKKSARTVGDVLGKYHPHGDSACYEAMVLMAQPFSYRYPLVDGQGNWGAPDDPKSFAAMRYTESRLSKYSELLLSELGQGTADWVPNFDGTLQEPKMLPARLPNILLNGTTGIAVGMATDIPPHNLREVAQAAIALIDQPKTTLDQLLDIVQGPDYPTEAEIITSRAEIRKIYENGRGSVRMRAVWKKEDGAVVISALPHQVSGARVLEQIAAQMRNKKLPMVDDLRDESDHENPTRLVIVPRSNRVDMDQVMNHLFATTDLEKSYRINLNMIGLDGRPAVKNLLEILSEWLVFRRDTVRRRLNYRLEKVLKRLHILEGLLVAFLNIDEVIEIIRNEDEPKPALMSRFGLTETQAEAILELKLRHLAKLEEMKIRGEQSELEKERDQLQGILASERKMNNLLKKELQADAQAYGDDRRSPLQEREEAKAMSEHDMLPSEPVTIVLSQMGWVRSAKGHDIDAPGLNYKAGDSFKAAVKGKSNQPVVFVDSTGRSYAIDPITLPSARGQGEPLTGKLTLPPGATVDHMLMESDDQKLLMASDAGYGFVCTFNDLVARNRAGKALITLPENAHVMPPVVIEDASDMLLAITQAGRMLMFPVSDLPQLSKGKGNKIINIPSAEAARGEDGLAQLYVLPPQSTLTIHVGKRKIKLRPEELQKVTGERGRRGTLMRGLQRIDRVEIDSPRRASSGDSEE
B4: acyl carrier protein (AcpP) found in MukB preparations (natural protein, E. coli, UniProt P0A6A8 1-78, looked up)
chain: MSTIEERVKKIIGEQLGVKQEEVTNNASFVEDLGADSLDTVELVMALEEEFDTEIPDEEAEKITTVQAAIDYINGHQA

Assays:
MukB (wild type) [1] = target: B2; assay: cross-linking
cross-linking = target: the molecule itself; assay: cross-linking
MukB (wild type) [2] = target: B2; assay: cross-linking; remark: listed apart in the source
MukB (wild type) [3] = target: B2; assay: co-purification, SDS-PAGE with Coomassie staining

Binder: B1
binding result (MukB (wild type) [1]): binds

Binder: B2
binding result (cross-linking): binds

Binder: B3
binding result (MukB (wild type) [2]): binds

Binder: B4
stoichiometry N (MukB (wild type) [3]): 1 AcpP:MukB
